Data published in patent US20210221885A1 (NANJING LEADS BIOLABS, published 2021).
Positions count from the first letter of the chain named. Values belong to the binder of their own block, whether it stands above or below them.

Key:
[1] = target: T1, Human TIM-3 protein (Acrobiosystems, Cat#TM3-H5229) (human, UniProt Q8TDQ0 22-200); experiment: ELISA, human TIM-3 coated at 1 ug/mL, detection with peroxidase-labeled anti-human IgG, OD450-620; the unit is that of the concentration axis
T1 construct: Bought protein; also called recombinant human TIM-3; TIM-3 recombinant protein
T1 sequence (looked up): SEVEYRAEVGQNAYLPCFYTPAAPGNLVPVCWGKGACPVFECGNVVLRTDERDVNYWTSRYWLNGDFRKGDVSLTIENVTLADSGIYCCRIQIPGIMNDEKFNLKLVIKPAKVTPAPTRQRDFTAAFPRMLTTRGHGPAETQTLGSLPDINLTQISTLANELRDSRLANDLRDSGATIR
Method: (§1) An ELISA assay was used for determination of the relative binding activity of antibodies to recombinant human TIM-3.
(§2) Human TIM-3 protein (Acrobiosystems, Cat#TM3-H5229) in carbonate buffer (pH 9.6, 1.59 g sodium carbonate and 2.93 g sodium bicarbonate dissolved in 1L water) was immobilized onto 96-well plates at 1μg/mL by incubation overnight at 4° C. The plates were then blocked with 1% BSA in PBS for one hour at 37° C. After blocking, the plates were washed three times with PBST (PBS containing 0.05% Tween20). […] After binding, the plates were washed three times with PBST, incubated for one hour at 37° C. with peroxidase-labeled donkey anti-human IgG (Jackson Immuno Research) diluted 1/15,000 in binding buffer, washed again, developed with TMB and stopped with 1M H₂SO₄.
(§3) The absorbance at 450 nm-620 nm was determined.

[2] = target: T2, Eu3+ cryptate labeled TIM3 (Cisbio kit, cat# 63ADK000CTLPEB) (human, UniProt Q8TDQ0 22-202, limits assumed, Eu3+ cryptate label); experiment: HTRF blocking assay (Cisbio kit), antibody added to a mixture of Tim3-EuK and Tag-Gal9; blocked ligand galectin-9; the unit is that of the concentration axis
T2 construct: Kit reagent; construct not described; also called Tim3-EuK protein; Tim3-EuK
T2 sequence (looked up): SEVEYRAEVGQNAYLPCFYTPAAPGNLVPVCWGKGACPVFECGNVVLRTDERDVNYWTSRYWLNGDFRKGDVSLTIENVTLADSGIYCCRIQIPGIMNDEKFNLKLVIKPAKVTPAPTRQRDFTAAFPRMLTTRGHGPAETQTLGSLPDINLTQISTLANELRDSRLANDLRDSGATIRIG
Method: The resultant mixture was incubated for 1 h at room temperature and then the fluorescence emission was read.

[3] = target: T3, human TIM-3 stably expressed on CHO-K1 cells (human, UniProt Q8TDQ0 22-301); experiment: flow cytometry on CHO-K1-TIM-3 cells, detection with PE anti-human IgG Fc, MFI; the unit is that of the concentration axis
T3 construct: whole, on cells; also called CHO-K1-TIM-3; cell surface TIM-3
T3 sequence (looked up): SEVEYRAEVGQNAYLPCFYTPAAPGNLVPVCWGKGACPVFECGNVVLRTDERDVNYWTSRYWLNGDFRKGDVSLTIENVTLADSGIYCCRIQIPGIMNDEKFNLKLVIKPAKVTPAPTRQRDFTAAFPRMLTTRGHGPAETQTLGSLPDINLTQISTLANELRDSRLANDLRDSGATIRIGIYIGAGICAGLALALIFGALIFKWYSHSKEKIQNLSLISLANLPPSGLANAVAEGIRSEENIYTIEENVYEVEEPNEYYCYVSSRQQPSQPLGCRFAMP
Method: Anti-TIM-3 antibodies were tested for their binding ability to human TIM-3 stably expressed on CHO-K1 cells. A Chinese hamster ovary epithelial CHO-K1 cell line (ATCC, cat# CCL-61) was maintained in F-12K medium containing 10% FBS in a humidified incubator with 5% CO₂ at 37° C. Polyethylenimine (MW25K, 23966-2, Polyscience) was diluted to 1 mg/mL, and added to and incubated with pcDNA3.1 vector containing TIM-3 cDNA (NP_116171.3) at 37° C. for 10 mins. The mixture was added to and incubated with cell culture for 3hrs for DNA transfection.
The anti-TIM-3 antibodies were serially diluted in PBS buffer with 0.5% BSA. The antibodies were added to and incubated with CHO-K1-TIM-3 cells at 4° C. for 30min. The cells were pelleted (3 minutes, 600×g), washed once using PBS buffer with 0.5% BSA and re-pelleted. Then, the cells were incubated with a PE conjugated AffiniPure Goat Anti-human IgG, Fcγ Fragment Specific (Jackson ImmunoResearch Cat#109-116-098) diluted at 1:100 at 4 ° C. for 30mins. Cells were washed twice as described above, resuspended in PBS buffer. The cells were then sent to the […] flow cytometer (BD Bioscience) for binding activity analysis. The EC₅₀ values were calculated.

[4] = target: T1, Human TIM-3 protein (Acrobiosystems, …); experiment: ELISA, human TIM-3 coated at 1 ug/mL, detection with peroxidase-labeled anti-human IgG, OD450-620
Method: as §1, §2, §3

[5] = target: T1, Human TIM-3 protein (Acrobiosystems, …); experiment: SPR, Biacore T200; antibody captured on anti-human IgG (Fc), human TIM-3 injected at 1.56-50 nM; 1:1 Langmuir fit
Method: The kinetic binding activity of anti-TIM-3 antibodies to human TIM-3 (Acrobiosystems, Cat#TM3-H5229) was measured by surface plasmon resonance using a Biacore® T200 system (Biacore, GE Healthcare).
Approximately 6800 RU of Anti-Human IgG (Fc) antibody (GE Catalog # BR-1008-39) was immobilized via amine coupling chemistry onto a CMS sensor chip. […] HBS-EP+ buffer was used as the running buffer. Varying concentrations of human TIM-3 protein, ranging from 1.56 nM to 50 nM, were injected over the antibody surfaces. Following each injection cycle, the CMS chip surface was regenerated using injection of 3M magnesium chloride solution. Background subtraction binding sensorgrams were used for analyzing the rate of association Ka and dissociation Kd, and the equilibrium dissociation constant KD. The resulting data sets were fitted with a 1:1 Langmuir Binding Model using the Biacore T200 evaluation software.

[6] = target: T4, Human TIM-1 (Sino biological, Cat#11051-HNCH) (human, UniProt Q96D42 21-295, limits assumed); experiment: ELISA, human TIM-1 coated, serially diluted antibody
T4 construct: Bought protein; construct not described
T4 sequence (looked up): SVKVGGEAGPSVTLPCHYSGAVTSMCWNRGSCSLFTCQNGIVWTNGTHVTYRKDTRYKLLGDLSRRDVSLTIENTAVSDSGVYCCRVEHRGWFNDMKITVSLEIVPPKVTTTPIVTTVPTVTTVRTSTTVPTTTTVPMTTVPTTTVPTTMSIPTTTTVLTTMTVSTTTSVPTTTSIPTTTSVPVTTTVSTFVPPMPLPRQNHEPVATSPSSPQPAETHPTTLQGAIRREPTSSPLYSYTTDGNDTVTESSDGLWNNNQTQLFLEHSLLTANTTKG
Method: (§4) After blocking, the plates were washed three times with PBST (PBS containing 0.05% Tween20). […] After binding, the plates were washed three times with PBST, incubated for one hour at 37° C. with peroxidase-labeled donkey anti-human IgG (Jackson Immuno Research) diluted 1/15,000 in binding buffer, washed again, developed with TMB and stopped with 1M H₂SO₄.
as §3

[7] = target: T5, Human TIM-4 (Sino biological, Cat#12161-H08H) (human, UniProt Q96H15 25-315); experiment: ELISA, human TIM-4 coated, serially diluted antibody
T5 construct: Bought protein; construct not described
T5 sequence (looked up): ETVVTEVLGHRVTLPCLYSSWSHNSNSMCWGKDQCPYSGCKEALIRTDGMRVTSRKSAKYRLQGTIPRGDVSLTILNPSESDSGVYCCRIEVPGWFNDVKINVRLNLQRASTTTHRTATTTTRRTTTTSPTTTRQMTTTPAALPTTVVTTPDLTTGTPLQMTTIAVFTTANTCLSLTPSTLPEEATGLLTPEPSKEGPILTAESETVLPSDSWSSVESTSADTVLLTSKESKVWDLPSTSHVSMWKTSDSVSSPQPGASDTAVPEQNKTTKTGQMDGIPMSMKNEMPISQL
Method: as §4, §3

[8] = target: C1q (Calbiochem, Cat#204876) (UniProt P02745 23-245; P02746 28-253; P02747 29-245); experiment: ELISA, antibody coated, C1q added, anti-C1q-HRP detection
C1q (Calbiochem, Cat#204876), sequence (P02745 23-245, chain 1 of 3): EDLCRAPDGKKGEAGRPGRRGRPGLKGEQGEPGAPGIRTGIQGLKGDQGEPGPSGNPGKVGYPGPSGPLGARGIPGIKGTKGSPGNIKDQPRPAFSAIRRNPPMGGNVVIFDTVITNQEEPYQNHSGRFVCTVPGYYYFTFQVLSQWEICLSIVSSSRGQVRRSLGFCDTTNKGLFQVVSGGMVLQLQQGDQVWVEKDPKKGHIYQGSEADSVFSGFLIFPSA
C1q (Calbiochem, Cat#204876), sequence (P02746 28-253, chain 2 of 3): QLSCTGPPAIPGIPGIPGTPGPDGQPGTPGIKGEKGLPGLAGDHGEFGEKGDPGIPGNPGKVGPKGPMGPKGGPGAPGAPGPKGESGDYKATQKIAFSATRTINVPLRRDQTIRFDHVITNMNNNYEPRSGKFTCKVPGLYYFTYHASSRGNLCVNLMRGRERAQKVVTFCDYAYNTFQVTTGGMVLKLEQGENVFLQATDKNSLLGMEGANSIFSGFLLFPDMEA
C1q (Calbiochem, Cat#204876), sequence (P02747 29-245, chain 3 of 3): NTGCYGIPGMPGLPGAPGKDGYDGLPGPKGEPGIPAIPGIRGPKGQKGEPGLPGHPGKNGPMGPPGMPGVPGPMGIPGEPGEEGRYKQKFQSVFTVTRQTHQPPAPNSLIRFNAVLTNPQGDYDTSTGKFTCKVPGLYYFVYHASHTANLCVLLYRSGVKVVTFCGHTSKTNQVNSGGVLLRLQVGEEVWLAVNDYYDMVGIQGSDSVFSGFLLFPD

B2: ABTIM3 analog (antibody, human IgG4 S228P, kappa, V domains shown)
VH: QVQLVQSGAEVKKPGASVKVSCKASGYTFTSYNMHWVRQAPGQGLEWIGDIYPGSGDTSYNQKFKGRATMTADKSTSTVYMELSSLRSEDTAVYYCARVGGAFPMDYWGQGTLVTVSS
VL: DIVLTQSPDSLAVSLGERATINCRASESVEYYGTSLMQWYQQKPGQPPKLLIYAASNVESGVPDRFSGSGSGTDFTLTISSLQAEDVAVYYCQQSRKDPSTFGGGTKVEIKR
IC50 [2]: 5.87 nM
EC50 [3]: 0.543 nM
EC50 (read off the curve) [4]: ~0.08 nM

B3: anti-TIM-3 antibody TIM3-6.11 (antibody, human IgG1, lambda, L234A L235A, V domains shown)
VH: QVQLVQSGAEVKKPGSSVKVSCKASGGTFSSYTIYWVRQAPGQGLEWMGSIIPILGTANYAQKFQGRVTITADESTSTAYMELSSLRSEDTAVYYCASASHTIWGQGTLVTVSS
VL: QAVVTQEPSLTVSPGGTVTLTCASSTGAVTSGYTPNWFQQRPGQAPRALIYTTSNRHSWTPARFSGSLLGGKAALTLSGVQPEDEADYYCLLYYGGAWVFGGGTKLTVLG
Kd [5]: 1.5 nM
koff [5]: 0.000344 s⁻¹
kon [5]: 230000 M⁻¹ s⁻¹

B4: anti-TIM-3 antibody TIM3-6 (antibody, human IgG4 S228P, lambda, V domains shown)
VH: B3 VH with Y35S, S50R, Q106K
VL: B3 VL with T34S
notes: Full-length IgG expressed in CHO-S cells
EC50 [1]: 9.24 nM
binding result [6]: no binding
IC50 [2]: 1.88 nM
binding result [7]: no binding

B7: anti-TIM-3 antibody TIM3-4G7 (antibody, human IgG4 S228P, kappa, V domains shown)
VH: EVQLVETGGGLVQPGGSLRLSCAASGFTFSSYAMSWVRQAPGKGLEWVSGISGSGGSTYYADSVKGRFTTSRDNSENTLYLQMNSLRAEDTAVYYCAGSYYDDAFDIWGQGTLVTVSS
VL: ETTLTQSPATLSLSPGDTATLSCRASQSVTKDLVAWYQQRPGQAPRLLLYGASSRATGIPDRFSGSGSGTDFTLTISRLEPEDFAVYYCQQYGRSPLTFGGGTKVEIKR
notes: Full-length IgG
IC50 [2]: 4.73 nM
EC50 (read off the curve) [4]: 2 to 3 nM

Continued, values first:

EC50 [1]: 5.08 nM
IC50 [2]: 3.56 nM
B1: anti-TIM-3 antibody TIM3-11 (antibody, human IgG4 S228P, lambda, V domains shown)
VH: QVQLQQSGPGLVKPSQTLSLTCAISGDSVSSNSAAWNWIRQSPSRGLEWLGRTYYRSKWYNDYAVSVKSRITINPDTSKNQFSLQLNSVTPEDTAVYYCARDQAAGFPQPYIYGMDVWGKGTMVTVSS
VL: LPVLTQPPSVSKGLRQTATLTCTGNSNNVGNQGAAWLQQHQGHPPKLLTYRTNNRPSGISERFSASRSGNTASLTITGLQPEDEADYYCSGWDSSLNEGVFGGGTKLTVLG
notes: Full-length IgG

EC50 [1]: 0.0915 nM
EC50 [3]: 0.746 nM
binding result [8]: no binding
Kd [5]: 1.66 nM
koff [5]: 0.00037 s⁻¹
kon [5]: 223000 M⁻¹ s⁻¹
B5: anti-TIM-3 antibody TIM3-6.12 (antibody, human IgG1, lambda, L234A L235A)
heavy: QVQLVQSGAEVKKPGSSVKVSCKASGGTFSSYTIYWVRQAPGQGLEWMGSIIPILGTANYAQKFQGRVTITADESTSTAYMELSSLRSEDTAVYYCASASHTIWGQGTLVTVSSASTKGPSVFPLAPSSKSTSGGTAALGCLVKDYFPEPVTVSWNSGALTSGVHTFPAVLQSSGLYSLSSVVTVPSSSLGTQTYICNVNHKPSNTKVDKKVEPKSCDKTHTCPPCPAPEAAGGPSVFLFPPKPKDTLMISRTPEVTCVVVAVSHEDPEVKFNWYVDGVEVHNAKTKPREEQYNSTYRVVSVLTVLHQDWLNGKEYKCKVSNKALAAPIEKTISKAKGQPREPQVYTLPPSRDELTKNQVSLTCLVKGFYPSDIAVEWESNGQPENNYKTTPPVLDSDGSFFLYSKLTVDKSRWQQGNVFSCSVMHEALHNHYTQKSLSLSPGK
light: QAVVTQEPSLTVSPGGTVTLTCASSTGAVTSGYTPNWFQQRPGQAPRALIYTTNNRHSWTPARFSGSLLGGKAALTLSGVQPEDEADYYCLLYYGGAWVFGGGTKLTVLGQPKAAPSVTLFPPSSEELQANKATLVCLISDFYPGAVTVAWKADSSPVKAGVETTTPSKQSNNKYAASSYLSLTPEQWKSHRSYSCQVTHEGSTVEKTVAPTEC
notes: In the internalization assay the antibody carried pHAb amine reactive dye

Kd [5]: 2.05 nM
koff [5]: 0.000415 s⁻¹
kon [5]: 202000 M⁻¹ s⁻¹
B6: anti-TIM-3 antibody TIM3-6.10 (antibody, human IgG1, lambda, L234A L235A, V domains shown)
VH: B3 VH
VL: B3 VL with Y33N
